{
  "source": "patent US12077576",
  "about": "(TRUSTEES OF TUFTS COLLEGE, dated 2024)",
  "binders": {"B1": {"name": "JZT-F7 (XAG-1) anti-TcdB VHH (VHH)", "VHH": "QVQLVETGGGLVQAGGSLRLSCAASGSILSSMGWYRQAPGNQREFVASISRTGATDYADSVAGRFIISRDRGKNTVLALQMDSLKPEDTAVYYCNAGLGMGDPRRPGPWWGQGTQVTVSS"}, "B2": {"name": "JZS-C2 (XAF-6) anti-TcdB VHH (VHH)", "VHH": "QVQLAESGGGLVQPGGSLRLSCAASGFTSNSYYIGWFRQAPGKGREAVSSISSSGGSPNYANAVKGRFTITRDNANNTVYLQMDNLKPEDTAVYYCAASKFPLTTMASNRYHYWGQGTQVTVSS"}, "B3": {"name": "JZS-C10 (XAF-9) anti-TcdB VHH (VHH)", "VHH": "QLQLVETGGLVQAGGSLRLSCVGSGRGPGINVMGWYRQAPGTERELVATWQTGGTTNYADSVKGRFTISRDNLKNTVSLQMDSLKPEDTAVYYCYLKKWRDEYWGQGTQVTVSS"}, "B4": {"name": "JZS-H4 (XAF-13) anti-TcdB VHH (VHH)", "VHH": "QLQLVESGGGLVQPGGSLRLSCVASGFNFSVQIMSWVRQAPGKGLEWVSAISTGGASKSYADFAKGRFTISRDNAKNTLYLQMNSLQLEDTAVYFCSKGPRTWINSSPRGQGTQVTVSS"}, "B5": {"name": "JZS-A2a (XAF-1) anti-TcdB VHH (VHH)", "VHH": "QVQLAESGGGLVQAGGSLRLSCAASGSVYTFMGWYRQAPGKTRELVAGISGGTITKYADSVKGRFIISRDSPKNTIYLQMNELKVEDTGVYYCNAGDTIAQAMGTRRFPFDRWGQGTQVTVAS"}, "B6": {"name": "JZS-B9 (XAF-5) anti-TcdB VHH (VHH)", "VHH": "QLQLVESGGGLVQPGGSLRLSCTSARFSLINYAIGWFRQAPGQKREGVSLLTSGGATYYADSARDRFTISRDNARNTVYLQMNSLKPEDTAVYSCAAGPYSRTLVSRWKVGDGMEYWGKGTLVTVSS"}, "B7": {"name": "JZS-H9 (XAF-14) anti-TcdB VHH (VHH)", "VHH": "QVQLVESGGGLVQPGGSLTINCTVSGTAFSLDTMTWYRQAPGKQRELAADISSSGASNYLASVKGRFTISRDNAKSALYLQMNSLKPEDTGTYYCYRGRVRGVWPLDSGMMYWGKGTLVTVSS", "notes": "also called JZX-H9"}, "B8": {"name": "JZT-G9 (XAG-7) anti-TcdB VHH (VHH)", "VHH": "QVQLAETGGGLVQAGGSLRLSCVSSERNPGINAMGWYRQAPGSQRELVAVWQTGGSLSYADSVKGRFTISRDNLKNTVYLQMNSLKPEDAAVYYCYLKKWRDQYWGQGTRVTVSS"}, "B9": {"name": "JZS-F6 (XAF-12) anti-TcdB VHH (VHH)", "VHH": "QLQLAESGGGLVQPGGSLRLSCAASGITFSNVAMSWVRQAPGKGLEWVSTISTGGSSTSYLDSVKSRFTISRDNAKKTVYLQMNSLKPEDTAVYYCVKGPKYSATIRRPEGQGTQVTVSS"}, "B10": {"name": "JZS-B2 (XAF-4) anti-TcdB VHH (VHH)", "VHH": "QVQLAESGGGLVQAGGSLRLSCVGSGTSFPRNYMGWYRQAPGKQRELVAAISHDGNVEYADSVKGRFTISRGNFVNTVALQMNSLKSEDTAVYYCKLVTLRRDEYWGQGTQVTVSS"}, "B11": {"name": "JZS-E4 (XAF-10) anti-TcdB VHH (VHH)", "VHH": "QVQLVESGGGLAQAGGSLRLSCAASGSSFSMNVMGWYRQPPGKQRELVATIRSDGITNYAESVKGRFTISRDNVKNTVHLEMNRLKAEDTAVYYCFHGRARTGNNADLGSWGQGTQVTVSS", "notes": "also called JZX-E4"}, "B12": {"name": "JZS-E6 (XAF-11) anti-TcdB VHH (VHH)", "VHH": "QVQLAETGGGLVQAGGSLRLSCAASGRLSERIFMISTMAWYRQVPGKQRELVAEISRLGRANYSDSVTDRFIISRDNTKNTVDLQMNSLKPEDTAVYYCNLKPFVDNYRGPGTQVTVSS"}},
  "key": {"[1]": {"molecular_target": "T1, Clostridium difficile toxin B (TcdB) (Clostridium difficile, UniProt P18177 2-2366)", "T1 sequence (P18177 2-2366)": "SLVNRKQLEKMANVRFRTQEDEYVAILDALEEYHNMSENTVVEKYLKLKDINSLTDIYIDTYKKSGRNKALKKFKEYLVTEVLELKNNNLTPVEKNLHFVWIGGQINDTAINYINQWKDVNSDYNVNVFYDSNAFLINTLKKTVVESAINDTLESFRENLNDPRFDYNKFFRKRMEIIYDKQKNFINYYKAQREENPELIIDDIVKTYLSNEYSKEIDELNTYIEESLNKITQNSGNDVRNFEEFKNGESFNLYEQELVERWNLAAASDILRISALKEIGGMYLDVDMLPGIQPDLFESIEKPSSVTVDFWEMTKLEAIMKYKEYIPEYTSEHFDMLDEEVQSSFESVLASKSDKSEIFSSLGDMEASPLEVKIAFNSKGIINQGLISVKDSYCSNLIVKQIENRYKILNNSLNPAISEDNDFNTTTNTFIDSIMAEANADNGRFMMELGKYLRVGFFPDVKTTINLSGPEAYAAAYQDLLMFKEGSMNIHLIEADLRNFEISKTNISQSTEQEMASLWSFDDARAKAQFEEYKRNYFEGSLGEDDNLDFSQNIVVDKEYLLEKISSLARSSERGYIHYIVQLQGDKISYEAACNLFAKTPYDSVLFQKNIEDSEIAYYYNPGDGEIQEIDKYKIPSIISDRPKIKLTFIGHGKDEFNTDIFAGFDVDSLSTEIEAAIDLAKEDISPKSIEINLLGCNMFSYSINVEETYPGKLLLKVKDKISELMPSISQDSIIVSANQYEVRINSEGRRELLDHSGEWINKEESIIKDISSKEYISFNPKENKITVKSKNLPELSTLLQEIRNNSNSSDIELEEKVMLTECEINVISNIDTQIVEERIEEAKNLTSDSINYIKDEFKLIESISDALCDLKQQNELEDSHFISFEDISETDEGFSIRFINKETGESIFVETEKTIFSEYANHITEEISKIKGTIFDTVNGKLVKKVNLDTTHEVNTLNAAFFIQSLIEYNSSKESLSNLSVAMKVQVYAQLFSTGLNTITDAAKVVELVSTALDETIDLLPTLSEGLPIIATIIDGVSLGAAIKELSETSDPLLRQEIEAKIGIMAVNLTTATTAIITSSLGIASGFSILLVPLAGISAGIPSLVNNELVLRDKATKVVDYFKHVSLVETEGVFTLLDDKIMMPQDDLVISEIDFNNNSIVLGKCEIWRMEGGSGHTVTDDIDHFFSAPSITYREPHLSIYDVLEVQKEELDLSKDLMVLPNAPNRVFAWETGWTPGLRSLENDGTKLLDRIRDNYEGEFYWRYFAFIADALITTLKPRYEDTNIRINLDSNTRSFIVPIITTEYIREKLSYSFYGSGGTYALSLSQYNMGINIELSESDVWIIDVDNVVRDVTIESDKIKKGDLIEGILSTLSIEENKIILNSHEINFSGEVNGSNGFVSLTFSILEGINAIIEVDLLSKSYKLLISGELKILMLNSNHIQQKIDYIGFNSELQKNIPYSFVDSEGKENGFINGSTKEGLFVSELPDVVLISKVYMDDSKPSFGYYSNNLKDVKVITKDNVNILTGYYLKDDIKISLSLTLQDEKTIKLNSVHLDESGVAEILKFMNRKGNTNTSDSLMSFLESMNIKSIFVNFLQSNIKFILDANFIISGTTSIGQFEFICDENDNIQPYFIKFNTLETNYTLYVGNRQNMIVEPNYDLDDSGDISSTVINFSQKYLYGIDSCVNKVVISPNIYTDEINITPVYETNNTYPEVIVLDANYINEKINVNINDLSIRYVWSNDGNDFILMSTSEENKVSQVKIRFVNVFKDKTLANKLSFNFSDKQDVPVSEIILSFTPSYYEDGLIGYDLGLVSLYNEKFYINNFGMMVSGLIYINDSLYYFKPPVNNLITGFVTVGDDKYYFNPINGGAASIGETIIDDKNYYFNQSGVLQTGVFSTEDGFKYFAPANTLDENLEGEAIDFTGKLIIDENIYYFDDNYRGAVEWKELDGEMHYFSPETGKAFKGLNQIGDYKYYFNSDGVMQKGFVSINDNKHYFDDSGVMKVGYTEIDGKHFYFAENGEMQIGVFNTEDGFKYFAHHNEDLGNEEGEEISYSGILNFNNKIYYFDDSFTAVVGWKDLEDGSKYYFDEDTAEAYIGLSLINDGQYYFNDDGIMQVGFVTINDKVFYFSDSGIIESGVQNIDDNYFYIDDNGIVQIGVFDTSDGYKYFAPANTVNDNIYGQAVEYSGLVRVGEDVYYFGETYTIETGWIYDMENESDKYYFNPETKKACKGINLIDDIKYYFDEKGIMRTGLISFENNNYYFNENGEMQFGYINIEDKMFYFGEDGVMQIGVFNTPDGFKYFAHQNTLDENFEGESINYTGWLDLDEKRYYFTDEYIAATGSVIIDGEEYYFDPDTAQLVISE", "assay": "cell-based or functional assay"}, "[2]": {"molecular_target": "T1, Clostridium difficile toxin B (TcdB)", "assay": "ELISA, VHH dilution series on plate-coated rTcdB, anti-E-tag-HRP detection"}, "[3]": {"molecular_target": "T1, Clostridium difficile toxin B (TcdB)", "assay": "cell-based or functional assay", "remark": "listed apart in the source"}},
  "data": [
    {"binder": "B1", "values": [
      {"measurement": "Apparent potency, (IC50); TcdB neutralization, Vero cell rounding assay", "setting": "[1]", "value": 1, "unit": "nM"},
      {"measurement": "EC50", "setting": "[2]", "value": 3, "unit": "nM"}
    ]},
    {"binder": "B2", "values": [
      {"measurement": "Apparent potency, (IC50); TcdB neutralization, Vero cell rounding assay", "setting": "[1]", "value": 0.5, "unit": "nM"},
      {"measurement": "EC50", "setting": "[2]", "value": 3, "unit": "nM"}
    ]},
    {"binder": "B3", "values": [
      {"measurement": "Apparent potency, (IC50); TcdB neutralization, Vero cell rounding assay", "setting": "[1]", "value": 0.5, "unit": "nM"},
      {"measurement": "EC50", "setting": "[2]", "value": 0.1, "unit": "nM"}
    ]},
    {"binder": "B4", "values": [
      {"measurement": "Apparent potency, (IC50); TcdB neutralization, Vero cell rounding assay", "setting": "[1]", "value": 0.5, "unit": "nM"},
      {"measurement": "EC50", "setting": "[2]", "value": 0.2, "unit": "nM"}
    ]},
    {"binder": "B5", "values": [
      {"measurement": "Apparent potency, (IC50); TcdB neutralization, Vero cell rounding assay", "setting": "[1]", "value": "> 25", "unit": "nM"},
      {"measurement": "EC50", "setting": "[2]", "value": "> 25", "unit": "nM"}
    ]},
    {"binder": "B6", "values": [
      {"measurement": "Apparent potency, (IC50); TcdB neutralization, Vero cell rounding assay", "setting": "[1]", "value": 1, "unit": "nM"},
      {"measurement": "EC50", "setting": "[2]", "value": 0.2, "unit": "nM"}
    ]},
    {"binder": "B7", "values": [
      {"measurement": "Apparent potency, (IC50); TcdB neutralization, Vero cell rounding assay", "setting": "[1]", "value": 15, "unit": "nM"},
      {"measurement": "EC50", "setting": "[2]", "value": 1, "unit": "nM"}
    ]},
    {"binder": "B8", "values": [
      {"measurement": "Apparent potency, (IC50); TcdB neutralization, Vero cell rounding assay", "setting": "[1]", "value": 3, "unit": "nM"},
      {"measurement": "EC50", "setting": "[2]", "value": 0.1, "unit": "nM"}
    ]},
    {"binder": "B9", "values": [
      {"measurement": "Apparent potency, (IC50); TcdB neutralization, Vero cell rounding assay", "setting": "[1]", "value": 0.5, "unit": "nM"},
      {"measurement": "EC50", "setting": "[2]", "value": 0.1, "unit": "nM"}
    ]},
    {"binder": "B10", "values": [
      {"measurement": "Apparent potency, (IC50); TcdB neutralization, Vero cell rounding assay", "setting": "[1]", "value": "> 125", "unit": "nM"},
      {"measurement": "EC50", "setting": "[2]", "value": 0.3, "unit": "nM"}
    ]},
    {"binder": "B11", "values": [
      {"measurement": "IC50 TcdB-neutralization potency (FIG. 1), Vero cell rounding assay", "setting": "[3]", "value": "~0.5", "unit": "nM"},
      {"measurement": "Apparent potency, (IC50); TcdB neutralization, Vero cell rounding assay", "setting": "[1]", "value": 1, "unit": "nM"},
      {"measurement": "EC50", "setting": "[2]", "value": 2, "unit": "nM"}
    ]},
    {"binder": "B12", "values": [
      {"measurement": "Apparent potency, (IC50); TcdB neutralization, Vero cell rounding assay", "setting": "[1]", "value": 1, "unit": "nM"},
      {"measurement": "EC50", "setting": "[2]", "value": 0.8, "unit": "nM"}
    ]}
  ]
}
